Measurements published in patent US20210221878A1.

What was measured:
[1] = biological target: αSyn WT PFF (preformed fibrils of recombinant wild-type human α-synuclein) (human) (UniProt P37840); assay: solution competition ELISA, free antibody captured on PFF plate; binding potency, PFF (ng/ml)
[2] = biological target: full-length human recombinant wild-type α-synuclein monomer (human) (UniProt P37840); assay: solution competition ELISA, free antibody captured on PFF plate; binding potency, monomer (ng/ml)
[3] = biological target: αSyn WT PFF (preformed fibrils of recombinant wild-type human α-synuclein) (human) (UniProt P37840); assay: ratio of monomer to PFF binding potency, solution competition ELISA

Substance Syn303 (antibody) has an EC50 [1] of 0.109 µg/mL, an EC50 [2] of 0.0512 µg/mL and a Mono/PFF Ratio [3] of 0.47.

For MJFR14642 (antibody), the EC50 [1] was 0.00051 µg/mL, the EC50 [2] was 3.66 µg/mL and the Mono/PFF Ratio [3] was 7230.

LB509 (antibody) gave an EC50 [1] of 0.0016 µg/mL, an EC50 [2] of 0.062 µg/mL and a Mono/PFF Ratio [3] of 38.

MJFR1 (antibody) showed an EC50 [1] of 0.0292 µg/mL, an EC50 [2] of 0.008 µg/mL and a Mono/PFF Ratio [3] of 0.27.
